Experimental data published in the DeepSol protein solubility set.

Test: soluble on expression in E. coli; label from the status in PepcDB or PDB records

Row | Sequence | soluble on expression in E. coli
1 | SLDSEKVKVLSIEEDNQAEILKELGLPANASYYRIKRVRYSEDTPFLVHITHLPKKLVKEPLSKDLTAYASVYERVRKDFSVDLFSLASVETNEIVFPEDAELLNLLQLSFREPAVKQVKHSYLADGSVAEYIISYKHWKYFKTKIEVEAE | soluble
2 | GMTTNTIMEQEARTAPQKIAEQLLANDAITESLGSVLREFKPKFVMIVGRGSSDHAGVFAKYLFEIEASIPTFAAAPSVASVYGKTLKLAGGLVIVISQSGRSPDILAQARMAKNAGAFCVALVNDETAPIKDIVDVVIPLRAGEEKAVAATKSYLATLSALLQVAAKWTQNESLVEAVNSLPQALQAAVDAEPQLRAGSLTDVKNLVVLGRGFGYAVSKEIALKLKEVCAIHAEAFSSAEFLHGPVTLVEKKLSILDVCIRDESYGSHVEQIANVKQRGANLIHLHQTSADIHPRIAPLALLQRFYIDVAAVAIALGINPDKPAGLKKVTQTL | soluble
3 | GSHMDPLMQKIDISENPDKIYFIRREDGTVHRGQVLQSRTTENAAAPDEYYVHYVGLNRRLDGWVGRHRISDNADDLGGITVLPAPPLAPDQ | soluble
4 | MSLGHIIVTGAGSGLGRALTIGLVERGHQVSMMGRRYQRLQQQELLLGNAVIGIVADLAHHEDVDVAFAAAVEWGGLPELVLHCAGTGEFGPVGVYTAEQIRRVMESNLVSTILVAQQTVRLIGERGGVLANVLSSAAQVGKANESLYCASKWGMRGFLESLRAELKDSPLRLVNLYPSGIRSEFWDNTDHVDPSGFMTPEDAAAYMLDALEARSSCHVTDLFIGRNEGHHHHHH | soluble
5 | PPKIRVVVRKRPISKKERERGDDDVVDVLAKNNTVVVNEEKVKVDLTKYLEKHAFKFDESLDENVSNEAVYQLTVGPLVRTLFRNGRASCFAYGQTGSGKTYTMSPLPIRASADIFTFMAQQQYRDISLCVSCFEIYGNKVFDLLNARKKLNILEDGKKKVVVVGLKEFGVDDVDGVKALIEESAKNRSTGSTAANADSSRSHSIMQFALKRAAPAPAGGFRRGEDAPEPRVVGKISFIDLAGSERGADTFDNNRQTRLEGAEINKSLLALKECIRALDSDARHVPFRGSKLTAVLRDSFVGDQARTVMIANISPCSSSVEHTLNTLRYADRVKELRKDKADRT | soluble
6 | SPNALDISRTYPTLHVLIQFNHRGLEVRLFRHGQFWAETRADVILRSKTKQVSFLSNGNYPSMDSRAPWNPWKNTYQAVLRAEPCRVTMDIYYKRVRPFRLPLVQKEWPVREENVFGLYRIFNAHYAGYFADLLIHDIETNPAPFMFRPRKQVFQTQGAAVSSMAQTLLPNDLASKAMGSAFTALLDANEDAQKAMKIIKTLSSLSDAWENVKETLNNPEFWKQLLSRCVQLIAGMTIAVMHPDPLTLLCLGTLTAAEITSQTSLCEEIAAKFKTIFITPPPRFPTISLFQQQ | not soluble
7 | METEICEQLGDLHLDKEAILLRAEQIEQDIKARKYSVIPPLSDEEQNLLDAEIAKRAAPPPGVPDAADFPLHDIVKELGLDKPVDGTDPEFYEELKAKDANTVYKNMKDVPDSIAAKYLPDLARRFVEFERRVKRVERMLWALPREDRSLEEDRFEILTELLDKSCQGLEIWEEHCERKIPLGHRCVLEGELIHLITSKFDLIDKICGEFDKLKNKRSEVNDERDMLRYEIRHCDMIFTEIHEKFLKSYLEMDW | not soluble
8 | MDAVSPLDAYERAVQRGFQPDQAQLQAVQQLQACYLALTESRGQAQGVYLWGPVGRGKTWLMDRFFESLNVPARRQHFHHFMRWVHKRMFELMGTPQPLTVVAKELARDVRVMCFDELFVTDIGDAVILGGLLQVMFEQGVVLVCTSNQPPDQLYSHGHNRERFLPAVAAIQKYMKVVAVDGGEDHRLHPGQLHQRYWVAQAGQPSALQGIFEALSAGQPVHDSQVMLGYRSINVVEHSDTAVWCRYRDLCEQPLAAMDFIALCDRFSVILLSEVPVLGAVQREAKIARGTEDGVEQVTAGDRELPQLSPNDDGVRRFIALVDECYDRRIPLYVEAPVPMDQLYTQGYLSFAFRRTLSRLQEMQLERFTESLEHHHHHH | not soluble
9 | MAEINIYQNPGQSLANIYKGFARQCNPGFVFPEAQTIEAWDIPLRLHPEFIPGGDISKADQQYSTLLAQEIANGVTIGFRMVNEKERVCNVEILPLLTSMAQNLDRIKARFGSGYLDRFKGSPNVYPTDVGFSTDASGGISQESGLLVSYGVNLRTLTPGTWQAMTLPEDIKALVGPGVGLRLDAPNFSDVFNTIKSGLRYTTAVTLLLAYFAAI | soluble
10 | MSTEQANGTTIEEKKDKVAEVTEKLDNLAVDTTNEANDAKQPARRGGFRGRGRGRGRGGHFYQPRPPYEDQMKKLEEDLASKKVIETGVKGHVKWFSVRGRYGFVARDKPTDENEDFFVHQTAITKSSTIKFYLRTLDDDEPVVFDIVEGLKGPEAANVTGPDGENVRGSRFARTLLTHWRTRGRGGARGRGGRGRGAPRQTRDQDGDEKDEKEKSDTIENSGDGETRGKRRTRRHGKLQPDAPSGEKGDGDAAAATTDAAPAAEKKKKRQRKGNKEPTTTTEQKEETAAPAKA | not soluble
11 | MAHHHHHHMKVVEKQLSKKTLKVKKETEKNSTGFMEKKKINKKEKKIYKNNYNNDNIKEEEDILLNQDDFEKKKKKSLENKILLSKKLKEIKLQFKDDDTINNSKKNNWIERLDITSTEYYYLKKTELFGISESREKQLQNITHMNVIQALQKLQELNIKFNRPYDFLADMLKSDIHMEKIRQKILKEHEQAEVRENNKLKRINKKFLKKCGSQKIKSHKEALEKKQNLLKIDQLKKTNNLQNLNVQEFFIKHSKDHDYKAGKITAKKDMKHKKKNFNNKAKKDKGIKNKQIGKKTSINNKRKASSKNSRKSKKMKKKHKHRK | soluble
12 | GGGGSSGGSTGGGSGSGPVTIEIGSKGEELAFDKTELTVSAGQTVTIRFKNNSAVQQHNWILVKGGEAEAANIANAGLSAGPAANYLPADKSNIIAESPLANGNETVEVTFTAPAAGTYLYICTVPGHYPLMQGKLVVN | soluble
13 | MSLAIIPGVEQKPMSSNLESRIDQGTGREPADMVLKGGRFFDLVTGELVASDIAICGDTVVGTCGDYKGRHEIDISGKIVVPGFIDTHLHIESSLVTPHEFDRCVLPYGVTTAICDPHEIANVLGAEGLQFFLDSAMETIMDIRVQLSSCVPATHLETSGADLPIEKLLPFRNHPKVIGLAEFMNFPGVIHKDPVCMAKLEAFQGQHIDGHAPLLSGAALNGYLAAGIRTEHECTSAAEALEKIRKGMHILVREGSVSKDLHALMPIITERLSPYLALCTDDRNPLDIAEQGHLDYMIRTAIASGVEPLAIYRAASISAAKAFGLRDRGLVAPGWRADLVVIDTLQNCKASMVLSGGRLVDDALFATRKPVAPVGLDSVKARPVLASHFGVPVTEGETPVMGVLPGKIITEHRRYKLPTDGNQTTVDLENDIIKVAVIERHGKNGNHANGFVQGFGLKKGAIASTVGHDSHNICVVGVSEDDMALAANRLGDIKGGFVVVEDGRVTGEIALPVAGLMSLEPYETVRDTLHTLRKAAYALGTTLEEPFLQVAFLPLPVIPHLKISDMGMVDVDRFALIEGHHHHHH | soluble
14 | MQFGIFTIGDVTTDPTTGVTPSEHDRINAMTQIALKAEEVGLDVFATGEHHNPPFVPSSPTTHLAYIAAQTKNIQLSTSTTLITTNDPVKIAEDYAFLQHLSGGRVDLMMGRGNTGPVYPWFGKDIRKGIPLAVENYHLLRKLWREPVVNWKGEFRTPLQNYTSTPAPLGDVPPFVWHGSIRSVQIAEQAAFYGDGFFHNNIFWNKEHTAQMVNIYRQRFEKYGHGRADQAIVGLGGQVFIGETEAEAKKFFRPYFDNAPVYGHGPSLEEFTELTPLTVGTVEQVIERTMQFADWVGDYQRQLFLIDHAGLPLEVVLNQIEILGTQVVPELRRRMEKRRPDHVPSDPPSHSFLKAHPEHPHFLVEPSKTSAQ | not soluble
15 | MLSFPRPHSLVEGVVSAIRREIVSGRLPAESKMPTEHELADQFSVSRSVVREAISQLKADGVLVIRRGSGSFVSQTPGGTVFRLPGNEDHSAGLAKLFELRSWIEIQVASVAAQRHTDADLKRLSDAMLLMESNAGNFEISSKADCEFHCAIVAACKNEYLTAFHDFLGSQLIQARFMAWENSSKLEIGPSGAIREHREIFDAIAKRNPSEAAHCARMHLKAAALRLNIDLAD | not soluble
16 | MGSDKIHHHHHHMAIRSNHILVSRTDNIGDIVLTLPMVARLRQLNPKAKISFLCRAYAAPLVRFCTDIDEVIELENIADDPAGFLRKSGIDTVILAQPDRTLAQAAFRARVRHRIGNARQKIYLMLYCNRRVRFSKRTTEDHEAQINFRFLSPYGSRDIPTREQIPDLYHFDIPEDKAISDMQAPYAFNLVLHTKSNGHGREWPIEHYAALAELLLARRDVHLWLSGSAKEGEWLKANGGALLAKPNVTSLCGTQTLGQLTTFIHQADGLIASGTGPLHLSAAIGQRTLGLFPPTRPMHPGRWAALGKRAQNLVRDKSCRDCEKLETISCDCMVQLSPQSVLEIVEGWIRDKSAA | not soluble
17 | MGATGVASQRKTIEESIERNKEKYIETSHDIHANPEIGNQEFYASRTLSLLLGSAGFQLQHNIAGHETGFIARKSSGKQGPAIAFLAEYDALPGLGHACGHNLIGTISVAAAIALSETLEEIGGEVVVFGTPAEEGGPNGSAKSSYVKAGLFKNIDAALMIHPSGKTATTSPSLAVDPLDFHFYGKTAHAAASPEEGINALDAVIQLYNSINALRQQLPSDVKIHGVITEGGKAPNIIPDYAAARFFIRAATRKRCAEVTEKVKNIAQGAALATDTKVKIHQFQNEIDELLVTKTYNDVVAEELELLGEDVNRKERFGIGSTDAGNVSQVVPTIHPYIKIGPDDLIAHTNEFREAARSELGDKALITSAKALANTAYRLITEEGLLEKVKEEFREAQRNQG | not soluble
18 | MGSDKIHHHHHHMQTFLKGKRVGYWLSEKKIKKLNFQAFAELCRKRGMEVVQLNLSRPIEEQGPLDVIIHKLTDVILEADQNDSQSLELVHRFQEYIDAHPETIVLDPLPAIRTLLDRSKSYELIRKIEAYMEDDRICSPPFMELTSLCGDDTMRLLEKNGLTFPFICKTRVAHGTNSHEMAIVFNQEGLNAIQPPCVVQNFINHNAVLYKVFVVGESYTVVQRPSLKNFSAGTSDRESIFFNSHNVSKPESSSVLTELDKIEGVFERPSDEVIRELSRALRQALGVSLFGIDIIINNQTGQHAVIDINAFPGYEGVSEFFTDLLNHIATVLQGQSTAMAATGDVAL | soluble
19 | RIQKLREATDKVASGDYDIHLENSYGDEIGVLASDFNIMAKKLKQSRDEIERLEKRRRQFIADVSHELKTPLTTINGLVEGLNSHTIPEDKKDKCFSLISEETKRMLRLVKENLDYEKIRSQQITLNKLDVPLIEVFEIVKEHLQQQAEEKQNKLMIQVEDHVIVHADYDRFIQILVNITKNSIQFTQNGDIWLRGMEGYKETIIEIEDTGIGIPKEDIEHIWERFYKADISRTNTAYGEYGLGLSIVRQLVEMHQGTVEIKSE | not soluble
20 | MAIGVQKKTSTPLDVGTEQEPTNLEKTIGTLRRCLQIAGTSNKPGSRSAKNSISEESNDLTMEESVPEASKWPHCQHMISQDEAPRNDELASPNIRIVAYKDESQINDIMRLITKDLSEPYSIYTYRYFLHNWPEYCFLAYDQTNNTYIGAVLCKLELDMYGRCKGYLAMLAVDESCRRLGIGTRLVRRALDAMQSKGCDEIVLETEVSNKNAQRLYSNLGFIRQKRLLKYYLNGGDAFRLKLIFTSRRVRSLNNQENYQPRCRVNEDDTPDEEEGTY | not soluble
